Substitutions are numbered along the chain they refer to.
How the values were obtained:
[1] = target: the molecule itself; experiment: native gel or EMSA; adaptation of a Ferguson plot; apparent weight of the TTHA1953 complex bound to its consensus-sequence DNA (Fig. S3)
[2] = target: the molecule itself; experiment: non-reducing SDS-PAGE; 2 μg recombinant TTHA1953 treated with buffer, 10 mM CuCl2 or H2O2 for 20 min; Laemmli buffer with or without 350 mM β-mercaptoethanol; Coomassie staining
TTHA1953 [3] = target: T1, TTHA1953 (Thermus thermophilus HB8, UniProt Q5SGX7 1-93); experiment: BLI; 1 mM DTT; BLI: 20 mM Tris pH 7.5, 100 mM NaCl, 1 mM EDTA, 0.05% Tween-20, 1 mM DTT, 37 C; REPSA: 1x CutSmart, 1 mM DTT, 55 C 20 min then 37 C (REPA details not in materia); conditions: protein: recombinant; chain copies: 8; label: 5' biotin on ST2R strand; blunt
T1 sequence: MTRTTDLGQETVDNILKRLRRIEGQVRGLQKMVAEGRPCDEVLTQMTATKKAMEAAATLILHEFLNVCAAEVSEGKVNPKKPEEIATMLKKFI

TTHA1953 [4] = target: T1, TTHA1953; experiment: as above; conditions: protein: recombinant, chain copies: 8, blunt
[5] = label: 5' biotin on ST2R strand

B1: TTHA1953, CsoR-like protein from Thermus thermophilus HB8 (natural protein, UniProt Q5SGX7 1-93, looked up)
chain: T1 sequence
notes: TTHA1953, CsoR-like protein of Thermus thermophilus HB8; expression vector TEx04A02 bought from RIKEN BioResource Research Center; has two cysteines (C39, C68); No tag is mentioned; Estimated homo-octamer weight 83 kDa, so about 10 kDa a chain; also called CsoR family transcriptional regulator; source: E. coli Rosetta 2 (DE3), purified (1 M NaCl extraction of the pellet after sonication, 70 °C …)
B1 was tested, and the “stoichiometry N” value [1] was 8 and the “stoichiometry N” value [2] was 2.

B2: ST2_1953_mt7 (spacer +1) (dsDNA)
DNA 1: CTAGGAATTCGTGCAGAGGTGATACTATACCTCTGGTATGGTACATCCCTCCAGAAGCTTGGAC
DNA 2: GTCCAAGCTTCTGGAGGGATGTACCATACCAGAGGTATAGTATCACCTCTGCACGAATTCCTAG
With B2 the “Kd fold-change relative to consensus” value (TTHA1953 [3]) was ~10 fold higher Kd than consensus.

B3: Control (dsDNA)
DNA 1: CCTCTCTATGGGCAGTCGGTGATCTAGGAATTCGTGCAGAGGTGACGTCATAGAATTCGCATCCCTCCAGAAGCTTGGAC
DNA 2: GTCCAAGCTTCTGGAGGGATGCGAATTCTATGACGTCACCTCTGCACGAATTCCTAGATCACCGACTGCCCATAGAGAGG
B3: no binding (TTHA1953 [4]; label: 5' IRDye800 on ControlL strand (REPA)).

B4: ST2_1953_mt8 (spacer -1) (dsDNA)
DNA 1: CTAGGAATTCGTGCAGAGGTGATACTATACCTGGTATGGTACATCCCTCCAGAAGCTTGGAC
DNA 2: GTCCAAGCTTCTGGAGGGATGTACCATACCAGGTATAGTATCACCTCTGCACGAATTCCTAG
B4 was tested, and the “Kd fold-change relative to consensus” value (TTHA1953 [3]) was ~15 fold higher Kd than consensus.

B5: ST2_1953_mt9 (dsDNA)
DNA 1: CTAGGAATTCGTGCAGAGGTGAGCTTATACCTTGTGCTGGTACATCCCTCCAGAAGCTTGGAC
DNA 2: GTCCAAGCTTCTGGAGGGATGTACCAGCACAAGGTATAAGCTCACCTCTGCACGAATTCCTAG
B5: no binding (TTHA1953 [4]; [5]).

B6: ST2_1953_mt10 (dsDNA)
DNA 1: B5 DNA 1 with T28G, A29C, C30T, T35G, G36T, C37A
DNA 2: B5 DNA 2 with G27T, C28A, A29C, G34A, T35G, A36C
B6: no binding (TTHA1953 [4]; [5]).
